Measured values as given in PMC11998529.

Target: mitochondrial antiviral signaling protein (MAVS), full length, Flag-tagged (human (cDNA from HEK293T)) (UniProt Q7Z434)
UniProt Q7Z434, sequence (Q7Z434 whole entry): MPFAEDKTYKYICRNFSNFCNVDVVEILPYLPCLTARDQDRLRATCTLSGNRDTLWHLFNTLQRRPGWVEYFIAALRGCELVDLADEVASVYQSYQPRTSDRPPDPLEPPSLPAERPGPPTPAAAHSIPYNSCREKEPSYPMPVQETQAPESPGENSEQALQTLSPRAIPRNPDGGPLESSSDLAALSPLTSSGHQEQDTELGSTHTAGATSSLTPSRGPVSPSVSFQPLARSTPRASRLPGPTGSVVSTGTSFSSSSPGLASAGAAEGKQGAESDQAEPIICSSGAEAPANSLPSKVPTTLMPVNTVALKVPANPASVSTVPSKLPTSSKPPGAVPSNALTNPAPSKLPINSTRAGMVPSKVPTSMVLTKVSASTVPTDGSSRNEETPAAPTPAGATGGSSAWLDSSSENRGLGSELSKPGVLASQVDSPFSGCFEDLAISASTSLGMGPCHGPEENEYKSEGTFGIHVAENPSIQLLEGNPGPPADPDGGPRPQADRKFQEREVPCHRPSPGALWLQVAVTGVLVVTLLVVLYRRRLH

EV-D68 structural protein VP3, HA-tagged (from UniProt Q68T42 318-552) (natural protein)
inhibition of MAVS-activated NF-κB promoter activity, dual-luciferase reporter in HEK293T, 600 ng VP3-HA plasmid: 70%
